Results taken from paper PMC4691890, “Atomic structure of the apoptosome: mechanism of cytochrome c- and dATP-mediated activation of Apaf-1” (Genes & Development, 2015).

Legend:
[1] = biological target: T1, full-length human Apaf-1 (residues 1–1248) (human, UniProt O14727 1-1248); assay: ITC; Apaf-1 4 μM, CytC 60 μM; 100 mM KCl, 20 mM HEPES pH 7.5; 22°C; VP-ITC; settings: both partners purified
T1 construct: Seven copies stand in the apoptosome that forms with CytC and dATP; source: Hi-5 insect cells (baculovirus), purified (Ni-NTA, gel filtration Superose 6)
T1 sequence (looked up): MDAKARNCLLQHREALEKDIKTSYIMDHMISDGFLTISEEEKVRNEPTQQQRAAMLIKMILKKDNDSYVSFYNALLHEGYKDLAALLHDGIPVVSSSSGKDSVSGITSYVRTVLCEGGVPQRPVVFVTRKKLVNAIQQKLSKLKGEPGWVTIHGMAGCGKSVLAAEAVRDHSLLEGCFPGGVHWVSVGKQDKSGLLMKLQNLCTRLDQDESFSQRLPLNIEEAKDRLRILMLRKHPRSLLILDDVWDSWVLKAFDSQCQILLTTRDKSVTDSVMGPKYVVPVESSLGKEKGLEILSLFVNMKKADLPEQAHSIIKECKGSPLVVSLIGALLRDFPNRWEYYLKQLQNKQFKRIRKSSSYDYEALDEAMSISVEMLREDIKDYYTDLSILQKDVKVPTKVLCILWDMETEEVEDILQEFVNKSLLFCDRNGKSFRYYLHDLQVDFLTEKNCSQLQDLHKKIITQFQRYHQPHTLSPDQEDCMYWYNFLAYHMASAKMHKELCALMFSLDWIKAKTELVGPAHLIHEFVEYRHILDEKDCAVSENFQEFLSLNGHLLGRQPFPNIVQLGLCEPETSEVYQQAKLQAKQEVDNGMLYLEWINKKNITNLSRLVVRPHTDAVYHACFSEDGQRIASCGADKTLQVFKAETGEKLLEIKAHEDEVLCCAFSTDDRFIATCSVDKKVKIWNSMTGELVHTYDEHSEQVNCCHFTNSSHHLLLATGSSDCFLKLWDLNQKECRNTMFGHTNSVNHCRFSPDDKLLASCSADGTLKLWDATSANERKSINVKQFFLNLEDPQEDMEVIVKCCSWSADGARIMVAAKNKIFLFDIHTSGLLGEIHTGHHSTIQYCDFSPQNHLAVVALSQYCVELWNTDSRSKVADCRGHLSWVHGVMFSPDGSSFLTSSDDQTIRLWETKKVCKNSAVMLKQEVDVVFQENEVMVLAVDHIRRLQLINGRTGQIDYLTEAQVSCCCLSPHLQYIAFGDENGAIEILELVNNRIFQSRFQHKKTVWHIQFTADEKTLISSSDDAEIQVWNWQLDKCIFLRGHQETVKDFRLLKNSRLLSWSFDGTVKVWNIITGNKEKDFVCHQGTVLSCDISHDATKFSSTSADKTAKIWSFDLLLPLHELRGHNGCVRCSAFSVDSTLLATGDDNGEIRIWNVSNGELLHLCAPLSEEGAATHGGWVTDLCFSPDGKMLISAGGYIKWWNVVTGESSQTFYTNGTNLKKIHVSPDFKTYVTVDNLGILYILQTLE

[2] = biological target: T1, full-length human Apaf-1 (residues …); assay: SEC; Apaf-1 incubated with CytC at a molar ratio of 1:2, Superdex-200 increase 5/150; 100 mM KCl, 20 mM HEPES pH 7.5, 5 mM DTT; fractions on SDS-PAGE; no dATP named; settings: both partners purified

| Binder | Ka [1] | Kd [1] | binding result [2] |
| --- | --- | --- | --- |
| untagged, full-length horse CytC (wild type, recombinant) (natural protein, cytochrome c, horse (Equus caballus), untagged, full length; Purification as in Yu et al. 2001; also called cytochrome c; wild-type CytC; source: E. coli BL21 (DE3), coexpressed with the yeast heme lyase CYC3, purified) not shown | ~2.04e+06 M⁻¹ | ~490 nM | – |
| horse CytC K87W (natural protein, cytochrome c, horse, untagged, full length, mutant K87W; source: E. coli BL21 (DE3), coexpressed with the yeast heme lyase CYC3, purified) not shown | – | – | binds |
